We go through three molecules from patent publication US20100136660A1 (published 2010).

T1: ovalbumin (UniProt P01012 2-386)
T1 sequence (looked up): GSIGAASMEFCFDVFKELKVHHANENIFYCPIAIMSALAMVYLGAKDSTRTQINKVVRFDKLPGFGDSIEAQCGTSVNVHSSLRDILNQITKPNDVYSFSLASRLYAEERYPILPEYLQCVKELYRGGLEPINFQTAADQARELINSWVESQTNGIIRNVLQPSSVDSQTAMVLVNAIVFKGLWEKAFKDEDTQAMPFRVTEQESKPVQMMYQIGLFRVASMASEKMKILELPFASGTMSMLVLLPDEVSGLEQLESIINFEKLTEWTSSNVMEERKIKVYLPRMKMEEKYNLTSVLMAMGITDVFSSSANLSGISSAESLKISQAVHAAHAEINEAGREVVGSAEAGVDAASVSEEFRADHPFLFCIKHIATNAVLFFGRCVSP

B1: human scFv VH14.1/VL14.1 (lysozyme binder from unimmunized library) (scFv, V domains shown)
VH: QVQLQESGPGLVKPSETLSLVCTVSGGSLSFSYWGWIRQPPGKGLEWIGYISHRGTDYNSSLQSRVTISADTSKNQFSLKLSSVTAADTAVYYCARSFSNSFFFGYWGQGT
VL: SSELTQDPAVSVAFGQTVRITCQGDSLRSSYASWYQQKPGQAPLLVIYGENSRPSGIPDRFSGSSSGNTASLTITGAQAEDEADYYCNSRDSRGTHLEVFGG
notes: scFv on phage from pHEN1
B2: human scFv VH13.1/VL13.1 (lysozyme binder from unimmunized library) (scFv, V domains shown)
VH: QVQLVQSGAEVKKPGQSLMISCQGSGYSFSNYWIGWVRQMPGKGLEWMGIIYPGDSDTRYSPSFQGQVTISADKSISTAYLHWSSLKASDTALYYCARLVGGTPAYWGQGT
VL: HVILTQPASVSGSPGQSITISCTGSSRDVGGYNYVSWYQHHPGKAPKLLISEVTNRPSGVSNRFSGSKSGNTASLTISGLQAEDEADYFCASYTSSKTYVFGG
notes: scFv on phage from pHEN1
B3: human scFv VH3.5/VL3.5 (BSA binder from unimmunized library) (scFv, V domains shown)
VH: QVQLVQSGGGVVQPGRSLRLSCAASGFTFSSYGMHWVRQAPGKGLEWVAVISYDGSNKYYADSVKGRFTISRDNSKNTLYLQMNSLRAEDTAVYYCAKTGYSSGWGYFDYWGQGT
VL: SSELTQDPAVSVALGQTVRITCQGDSLRSYYASWYQQKPGQAPVLVIYGKNNRPSGIPDRFSGSSSGNTASLTITGAQAEDEADYYCNSRDSSGNHVVFGG

The first test concerns the target T1, ovalbumin. As to the kind of experiment: phage ELISA. For orientation: An ELISA detects its analyte on a solid surface through an enzyme-linked reagent.
In the case of B1, the binding result is recorded as “no binding (tested: 100 ug/ml coating)”.
Still for that read-out and setting: in the case of B2 it was “no binding (tested: 100 ug/ml coating)”.
On the same count and under the same terms, in the case of B3 it was “no binding (tested: 100 ug/ml coating)”.

The target of another test is T2, bovine thyroglobulin (Sigma) (bovine, UniProt P01267 20-2769).
T2 construct: the same entry is used
T2 sequence (P01267 20-2769 limits assumed): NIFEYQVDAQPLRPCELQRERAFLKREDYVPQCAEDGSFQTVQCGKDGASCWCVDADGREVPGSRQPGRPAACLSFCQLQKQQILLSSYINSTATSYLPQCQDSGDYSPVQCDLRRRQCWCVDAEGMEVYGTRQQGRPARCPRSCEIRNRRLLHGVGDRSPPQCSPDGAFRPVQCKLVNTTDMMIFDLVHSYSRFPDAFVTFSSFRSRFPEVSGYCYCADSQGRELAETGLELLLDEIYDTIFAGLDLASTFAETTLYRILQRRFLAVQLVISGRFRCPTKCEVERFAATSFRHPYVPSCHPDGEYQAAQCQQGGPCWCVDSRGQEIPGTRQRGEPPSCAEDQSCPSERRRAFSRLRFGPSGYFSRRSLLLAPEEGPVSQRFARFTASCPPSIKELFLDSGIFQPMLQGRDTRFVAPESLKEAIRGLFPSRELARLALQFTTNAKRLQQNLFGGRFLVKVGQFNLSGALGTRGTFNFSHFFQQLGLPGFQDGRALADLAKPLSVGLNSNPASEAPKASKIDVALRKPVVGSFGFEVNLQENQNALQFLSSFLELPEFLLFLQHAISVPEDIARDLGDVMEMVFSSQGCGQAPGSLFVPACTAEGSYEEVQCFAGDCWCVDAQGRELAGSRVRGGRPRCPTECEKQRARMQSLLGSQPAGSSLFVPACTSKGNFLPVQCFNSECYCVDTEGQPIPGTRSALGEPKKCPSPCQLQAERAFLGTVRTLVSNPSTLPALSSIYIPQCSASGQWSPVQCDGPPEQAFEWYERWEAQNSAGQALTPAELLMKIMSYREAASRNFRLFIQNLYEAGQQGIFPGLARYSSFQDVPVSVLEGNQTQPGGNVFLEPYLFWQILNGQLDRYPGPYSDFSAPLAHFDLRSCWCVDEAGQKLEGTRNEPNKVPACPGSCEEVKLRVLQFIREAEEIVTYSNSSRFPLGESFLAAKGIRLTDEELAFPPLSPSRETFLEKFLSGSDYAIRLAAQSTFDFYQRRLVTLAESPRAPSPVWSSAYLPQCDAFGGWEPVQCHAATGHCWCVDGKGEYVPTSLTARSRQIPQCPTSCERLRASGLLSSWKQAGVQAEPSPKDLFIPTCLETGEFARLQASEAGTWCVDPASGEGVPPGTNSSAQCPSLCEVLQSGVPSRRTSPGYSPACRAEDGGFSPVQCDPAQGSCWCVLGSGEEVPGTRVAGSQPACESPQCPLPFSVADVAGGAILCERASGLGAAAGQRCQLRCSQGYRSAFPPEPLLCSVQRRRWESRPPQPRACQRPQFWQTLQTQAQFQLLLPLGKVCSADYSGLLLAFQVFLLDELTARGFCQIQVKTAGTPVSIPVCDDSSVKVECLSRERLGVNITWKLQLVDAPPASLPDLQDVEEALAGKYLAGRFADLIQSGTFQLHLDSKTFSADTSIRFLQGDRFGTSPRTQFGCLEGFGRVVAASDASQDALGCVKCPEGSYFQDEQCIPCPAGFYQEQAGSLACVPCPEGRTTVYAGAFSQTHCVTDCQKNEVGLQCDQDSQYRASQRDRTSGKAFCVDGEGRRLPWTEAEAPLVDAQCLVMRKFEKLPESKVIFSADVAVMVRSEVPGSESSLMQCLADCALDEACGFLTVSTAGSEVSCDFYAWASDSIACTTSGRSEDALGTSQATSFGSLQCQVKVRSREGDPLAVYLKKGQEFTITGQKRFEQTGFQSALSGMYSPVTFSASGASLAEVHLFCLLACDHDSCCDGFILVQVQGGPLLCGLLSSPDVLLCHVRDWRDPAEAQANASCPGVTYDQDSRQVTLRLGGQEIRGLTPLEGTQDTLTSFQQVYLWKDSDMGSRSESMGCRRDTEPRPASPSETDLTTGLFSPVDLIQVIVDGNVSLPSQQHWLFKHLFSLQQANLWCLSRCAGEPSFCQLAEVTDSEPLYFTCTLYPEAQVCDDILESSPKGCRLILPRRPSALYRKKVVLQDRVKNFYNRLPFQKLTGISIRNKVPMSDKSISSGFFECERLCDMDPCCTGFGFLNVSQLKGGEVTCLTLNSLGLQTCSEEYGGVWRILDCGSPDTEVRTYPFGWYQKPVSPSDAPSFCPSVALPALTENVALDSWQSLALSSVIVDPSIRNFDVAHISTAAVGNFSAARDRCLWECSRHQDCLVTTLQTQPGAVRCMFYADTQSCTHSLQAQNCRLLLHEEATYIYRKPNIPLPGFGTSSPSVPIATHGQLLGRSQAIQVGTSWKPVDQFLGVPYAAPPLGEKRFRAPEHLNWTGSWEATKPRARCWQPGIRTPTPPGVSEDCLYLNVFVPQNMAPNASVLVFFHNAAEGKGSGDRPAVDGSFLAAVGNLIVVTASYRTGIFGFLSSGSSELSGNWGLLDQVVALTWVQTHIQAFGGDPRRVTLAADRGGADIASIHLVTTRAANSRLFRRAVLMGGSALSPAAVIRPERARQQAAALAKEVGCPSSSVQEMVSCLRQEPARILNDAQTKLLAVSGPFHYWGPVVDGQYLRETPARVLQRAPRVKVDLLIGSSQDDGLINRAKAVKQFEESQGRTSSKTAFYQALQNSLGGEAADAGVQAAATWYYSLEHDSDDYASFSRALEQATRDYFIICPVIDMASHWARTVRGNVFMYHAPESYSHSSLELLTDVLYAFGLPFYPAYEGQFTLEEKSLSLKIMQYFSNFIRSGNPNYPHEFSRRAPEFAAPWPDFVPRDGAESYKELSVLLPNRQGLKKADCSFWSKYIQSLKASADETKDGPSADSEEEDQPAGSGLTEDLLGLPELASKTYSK
The test is described as follows: phage ELISA.
As for B1, the binding result was “no binding (tested: 100 ug/ml coating)”.
Still for that read-out and setting: the result for B2 reads “no binding (tested: 100 ug/ml coating)”; that for B3, “no binding (tested: 100 ug/ml coating)”.
